The text below walks through data of US5853721A, “Antibody to interleukin-12 receptor” (Hoffmann-La Roche Inc., priority 1995, dated 1998).

Assay [1] concerns the target T1, human recombinant IL-12 receptor β subunit (Homo sapiens, UniProt P42701).
T1 construct: expressed in transfected cells; host or cells: COS / COS-7 cells
Briefly: Equilibrium binding of 125I-IL-12 and 125I-2*4E6 to recombinant IL-12R expressed in COS cells. The procedure:
COS cells (4-5×10^7) were transfected by electroporation with 25 μg of plasmid DNA expressing recombinant human IL-12R (Chua, et al., J. Immunol., 153:128 (1994)) in a BioRad Gene Pulser (250 μF, 250 volts) according to the manufacturer's protocol. The cells were plated in a 600 cm^2 culture plate, harvested after 72 hours by scraping, washed and resuspended in binding buffer. Transfected cells (8×10^4) were incubated with increasing concentrations of ^125 I-labeled 2*4E6 or IL-12 at room temperature for 2 hrs. Cell bound radioactivity was separated from free ^125 I-labeled 2*4E6 or IL-12 as described above.

The target in assay [2] is T2, IL-12R (Homo sapiens, UniProt P42701). The experiment in a line: Inhibition of 125I-2*4E6 binding to cells by unlabeled competitor. Details: endogenous in cells; host or cells: Kit 225/K6 cells. Particulars: PHA-activated PBMCs (FIG. 6). The source says:
The data are expressed as the amount of ^125 I-2*4E6 bound [CPM BOUND (Percent)] to the cells in the presence of the indicated concentrations of unlabeled antibody or IL-12 when compared with the total specific binding in the absence of unlabeled competitor.

The target in assay [3] is T3, detergent solubilized IL-12R from Kit 225/K6 cells (Homo sapiens, UniProt P42701).
T3 construct: were solubilized with 8 mM CHAPS extraction buffer; endogenous in cells; host or cells: Kit 225/K6 cells, CHAPS extract
Briefly: 125I-IL-12 binding to detergent solubilized IL-12R immunoprecipitated by immobilized 2*4E6. Particulars: proteins immunoprecipitated by immobilized 2*4E6 from solubilized K6 cell extracts; read-out: apparent affinity of 125I-IL-12, single site. The procedure:
FIG. 8A: Kit 225/K6 cells (1.5×10^8 cells/ml) were solubilized with 8 mM CHAPS extraction buffer and the cell extract (0.2 ml) was immunoprecipitated for 16 hrs at 4° C. with mAb 2*4E6 immobilized on goat anti-mouse IgG coupled to agarose as discussed below. Following this incubation, the beads were pelleted, washed and resuspended in IP buffer containing ^125 I-IL-12 at concentrations ranging from 7 pM to […]. The IL-12R immobilized on the 2*4E6 coated beads was incubated with ^125 I-IL-12 for 2 hrs at RT and IL-12R bound radioactivity was determined in the presence of 50 nM unlabelled IL-12.
To confirm that the antibodies identified by the immunoprecipitation assay were specific for IL-12R, an immunoprecipitation/soluble IL-12R binding assay was developed. […] Following this incubation, the beads were pelleted, washed twice with IP buffer and the bound radioactivity determined in a gamma counter. Nonspecific binding was determined by inclusion of 70 nM unlabeled human IL-12 in the assay. Solubilized IL-12R binding data were analyzed according to the method of Scatchard, (Assn. N.Y. Acad. Sci., 51, 660 (1949)) by using the nonlinear regression programs EBDA and Ligand as adapted for the IBM PC by McPherson, from Elsevier-BIOSOFT.

Another assay relates to IL-12 receptor. Briefly: Steady state 125I-IL-12 binding to human cells (Scatchard).
In assay [4] the target is T2, IL-12R. Described as above. Also noted: human cells that naturally express IL-12R; endogenous in cells; receptor-negative PBMC, MRC-5, HL-60. Particulars: PHA-activated PBMCs, Kit-225 and Kit 225/K6 cells; third (low affinity) site.

On to “IL-12: 75-kDa heterodimeric cytokine of disulfide-bonded 40-kDa and 35-kDa subunits”, for which the Kd in assay [1] (rIL-12R β-expressing COS cells, read-out: apparent affinity of 125I-IL-12, single binding site) was 2 to 6 nM; in assay [3], 0.188 nM; with IL-12 receptor (YT cells, 2 sites), 0.109 nM; with IL-12R [4], 2 to 6 nM. Also, the 125I-IL-12 sites/cell entry in assay [1] (rIL-12R-expressing COS cells) is listed as “approximately 150,000 sites/cell”. Also, the “block of 125I-2*4E6 binding by unlabeled competitor” value with IL-12R [2] is recorded as “does not block”. Also, the “IL-12 BINDING (KD, Sites/cell)” value with IL-12 receptor (HL-60) is “none detectable”; in the assay with IL-12 receptor (MRC-5) it was “none detectable”; in the assay on IL-12 receptor (RAJI cells) it was “none detectable”; in the assay on IL-12 receptor (non-activated human PBMC) it was “none detected”.
